Each block holds one binder with its values, some of them ahead of it. Where no end group is shown, it is not given here.
Legend:
[1] = target: the molecule itself; assay: SEC; HiLoad Superdex S75 16/600; 20 mM HEPES pH 7.4, 200 mM NaCl, 5% glycerol, 0.1 mM TCEP; elution compared with standard proteins (estimated native MW 24.6 kDa, predicted 12.5 kDa)
[2] = target: T1, TNKS1 ARC subdomains 1–3 (ARC1–3, residues 178–645) (human, UniProt O95271 178-645); assay: FP
T1 chain: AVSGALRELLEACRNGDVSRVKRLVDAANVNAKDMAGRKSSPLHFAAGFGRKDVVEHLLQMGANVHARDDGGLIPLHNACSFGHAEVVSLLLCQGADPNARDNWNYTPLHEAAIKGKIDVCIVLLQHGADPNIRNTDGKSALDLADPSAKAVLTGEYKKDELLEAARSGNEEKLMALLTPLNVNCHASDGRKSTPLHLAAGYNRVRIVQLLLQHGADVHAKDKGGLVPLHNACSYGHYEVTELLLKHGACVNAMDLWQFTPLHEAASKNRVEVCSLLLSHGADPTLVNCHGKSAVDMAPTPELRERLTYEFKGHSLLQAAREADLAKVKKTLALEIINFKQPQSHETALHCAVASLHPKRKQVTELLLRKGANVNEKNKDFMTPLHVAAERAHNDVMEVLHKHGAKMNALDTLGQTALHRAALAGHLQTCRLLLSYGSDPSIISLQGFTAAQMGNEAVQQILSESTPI

[3] = target: T2, TNKS1 ARC subdomains 1–3 (ARC1–3, residues 178–645) (human, UniProt O95271 178-645); assay: fluorescence polarisation; 50 nM 5-FAM-Ahx peptide with varied ARC1–3 protein; 25 mM HEPES pH 8, 150 mM NaCl, 1 mM TCEP, 5% glycerol, 0.05% CHAPS; room temperature, 60 min; one-site total binding model; settings: both partners purified
T2 construct: human Tankyrase 1, ankyrin repeat clusters 1-3, residues 178-645; Cloned into pETM11 with NcoI and XhoI; also called TNKS1 ARC1–3
T2 sequence (looked up): T1 chain

B1: SSSCA1 N-terminal Auto_anti-p27 domain (M1-S111) (domain or fragment, human, UniProt O60232 1-111, looked up)
chain: MALNGAEVDDFSWEPPTEAETKVLQARRERQDRISRLMGDYLLRGYRMLGETCADCGTILLQDKQRKIYCVACQELDSDVDKDNPALNAQAALSQAREHQLASASELPLGS
notes: Residues 1-12 and 78-111 are not modelled in the crystal structure; also called N-terminal SSSCA1; hSSSCA1; not shown: His6, N-terminal, cleaved
stoichiometry N [1]: 2

B3: SSSCA1-H1 peptide (DVMACTQTALLQKLTWASAELGSS) (peptide)
peptide: DVMACTQTALLQKLTWASAELGSS
modifications: not fully specified (N-terminus); also: 5-FAM-Ahx-conjugated
notes: human SSSCA1, helix H1 region; source: synthetic peptide (bought: GenScript)
binding result [3]: binds
Kd [2]: 460 nM

B5: SSSCA1-H2 peptide (TSLETSIQLCGLIRACAEALRSLQQL) (peptide)
peptide: TSLETSIQLCGLIRACAEALRSLQQL
modifications: cysteine pairing not given here; also: 5-FAM-Ahx conjugate, position not given here
notes: human SSSCA1, helix H2 region; source: synthetic peptide (bought: GenScript)
binding result [3]: binds

Second part, the binder after the results:

Kd [2]: 60 nM
B2: SSSCA1-H2 peptide (TSLETSIQLCGLIRACAEALRSLQQL) (peptide)
peptide: TSLETSIQLCGLIRACAEALRSLQQL
modifications: not fully specified (N-terminus); cysteine pairing not given here; also: 5-FAM-Ahx-conjugated

binding result [3]: binds
Kd [2]: 460 nM
B4: Axin1 positive control peptide (EDAPRPPVPGEEG) (peptide)
peptide: EDAPRPPVPGEEG
modifications: not fully specified (N-terminus); also: 5-FAM-Ahx-conjugated
notes: source: synthetic peptide (bought: GenScript)
